Data published in the supplement of paper PMC12042874.
± gives the uncertainty stated by the source.

Test: amyloid nucleation score (Sup35N fusion, yeast selection) (log enrichment); library NNK2; higher = more nucleation; inactive = no reads after selection
How it was run: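 Using DiMSum, nucleation scores were taken as the log enrichment of output over input reads, centred on the mode score of non-aggregating sequences. The input and output reads came from Illumina sequencing of plasmid inserts, with sequences under 100 input reads excluded. The yeast were psi-negative, expressed Sup35N fused to peptides of 20 random codons, were induced with 100 μM copper sulfate for 24 hours, and were grown 7 days at 30°C on medium lacking adenine and uracil.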

| Substance | amyloid nucleation score |
| --- | --- |
| ESGVHWENTEVKGIYSYLCR | inactive |
| ESISTVITLRGLMLITTGYN | 4.12 ± 0.097 |
| ESLKINASSEQSRLVTRDTQ | -0.191 ± 0.61 |
| ESYLFAWDNGMFYIANDLEF | 0.494 ± 0.8 |
| ETFNCNFVWL | 4.83 ± 0.1 |
| ETLSQIMFYVKIIAYDCRNP | 2.66 ± 0.13 |
| ETPIIRDQYKLGYNLRTSVL | inactive |
| ETRGNRPF | 0.88 ± 0.33 |
| ETSFSTVRRQILSLLRLVSS | 0.326 ± 0.33 |
| ETVDSESFSGCGIVFLRGSN | -0.908 ± 0.78 |
| EVDVIS | -0.885 ± 0.64 |
| EVGILVTVVYSGKWKVSRCM | 1.87 ± 0.48 |
| EVSTWQLPMNTDTVEGGSVV | 1.16 ± 0.25 |
| EVWRWIFNHGLPRHAGHIVA | 0.312 ± 0.43 |
| EVWYSPDLTLLVYPTPR | 1.46 ± 0.4 |
| EVYYTSMERCGG | 1.36 ± 0.22 |
| EWDVLGLRGRANN | 1.36 ± 0.35 |
| EWNAKLWSLPSGATGCKSQS | 1.16 ± 0.2 |
| EYIYLNLYISDNLYSSGKSG | 2.88 ± 0.16 |
| EYLTNVMVRGDYFGWDHAIA | -0.949 ± 0.63 |
| EYMPP | 0.924 ± 0.16 |
| EYTHRSERFIMGNVISKVRM | 0.255 ± 0.49 |

| Substance | amyloid nucleation score |
| --- | --- |
| EYYLSVYSYYCYCLTCMFVI | 3.46 ± 0.15 |
| FACIGGVLHAGGGVGAIGA | 0.69 ± 0.42 |
| FAFVYSNHFGQMCYRNVCLS | inactive |
| FAQPHGCNKMCFCSLRFQYL | 3.21 ± 0.12 |
| FASLFPKAPERTEVSEPYRR | -0.76 ± 0.5 |
| FASRLNWVEIHTMYGGLS | 0.209 ± 0.32 |
| FATKRERNVWFMSIEWFVRG | -0.707 ± 0.44 |
| FCALPWGFFGYMGNLNLYSD | 2.62 ± 0.083 |
| FCCARILVNVSCVGATCGMC | 8.258 ± 0.043 |
| FCFSLCWDIFNVLSVFGYNF | -0.793 ± 1 |
| FCGISSR | -0.411 ± 0.56 |
| FCGYSAVVSRAGGCTNLSDE | inactive |
| FCHRRRYIFIWNIRCLSYLN | inactive |
| FCKHFYVLREHIKWADSFLM | inactive |
| FCKRKVTCVVY | -0.538 ± 0.45 |
| FCLALWWHYKFVLWFRNN | -0.836 ± 0.37 |
| FCLFQRDKTHSVWMGLKKFQ | -1.06 ± 0.78 |
| FCLVEVWRIYVVCWPWSVGR | 0.743 ± 0.47 |
| FCLYFSKNF | 3.63 ± 0.13 |
| FCPLLPVRFHV | -0.533 ± 0.61 |
| FCPVFST | -0.127 ± 1 |
| FCTHSQARDQVNSNHTMALL | 2.84 ± 0.064 |

| Substance | amyloid nucleation score |
| --- | --- |
| FCWLCFIRSEV | 0.554 ± 0.81 |
| FCWSCWLFQDCSYVVIGREV | 8.556 ± 0.048 |
| FDDEMVRCIFNYRLSGYRPL | 1.47 ± 0.22 |
| FDFRNGCGNTKVEFSMHRSG | 2.86 ± 0.21 |
| FDGLHVYQCWTPVNIARVEE | 0.099 ± 0.62 |
| FDMLVNGHVIYRNRKSSSYI | 0.216 ± 0.62 |
| FDQLPRVFNYRLAILWAVYR | -0.627 ± 0.79 |
| FDSFPSS | 0.529 ± 0.2 |
| FDSLAKLFSRIVLLLLLNDR | -0.032 ± 1.1 |
| FDSSSESLGKGKCY | 0.225 ± 0.49 |
| FDTLKLCSMWDLCCHITRVA | 5.904 ± 0.044 |
| FEAVDWFKL | -0.603 ± 0.74 |
| FECVAFSAV | -0.272 ± 0.28 |
| FEGCCWVVGLLRLSG | 8.713 ± 0.077 |
| FEVDVA | inactive |
| FEWWTSMGGGECVQRNNSVA | 0.697 ± 0.41 |
| FFDNPMHKTYSGSAARARLS | -0.375 ± 0.24 |
| FFGVSWRWARNFCYDMGQVY | -0.177 ± 1 |
| FFISALANR | inactive |
| FFLDYRENISAMLPTTR | -0.833 ± 1.1 |
| FFLGANGINALQNRSYIQPG | 0.007 ± 0.79 |
| FFLGDRIWL | inactive |

| Substance | amyloid nucleation score |
| --- | --- |
| FFLWVGTYSVVPGLCVYMS | 3.78 ± 0.11 |
| FFLYFVFCF | 2.67 ± 0.085 |
| FFNLNQLMFKELSMRLGHRY | 0.066 ± 0.74 |
| FFRCVLITPD | 0.179 ± 0.53 |
| FFRVQINEGDQGYQSQYF | inactive |
| FFSVPGAWCDKWALALANY | -0.564 ± 0.38 |
| FFTANPV | 0.335 ± 0.64 |
| FFTVDRDFLYFPDFSKRVVM | -0.569 ± 0.79 |
| FFVSGLFANF | 1.73 ± 0.2 |
| FGFFTTYSELAVQVIQSAVT | -0.032 ± 1.1 |
| FGIFEQMMFLHNVCSDFTAS | -0.447 ± 1.1 |
| FGIMNMKYGYTCMMSSSKSS | -1.43 ± 1.1 |
| FGKCYYLFVSYHYMLGLACT | -0.549 ± 1 |
| FGLTACH | -0.579 ± 0.54 |
| FGSAFTNGSVRNYVDGVQVI | 0.648 ± 0.74 |
| FGTILGSLVLVIWI | inactive |
| FGWGINRVYLVNM | 5.04 ± 0.088 |
| FHFKLRGWPGRGVTSMGS | -0.873 ± 0.62 |
| FHLFSVGTEGTPRRRKFAGD | -0.481 ± 0.78 |
| FHPVFGMFWRTSNERSGLFQ | -1.03 ± 0.48 |
